T1: Celery (Api g 1, MyBiosource, Cat #MBS1171376) (Celery, UniProt P49372 1-154, limits assumed)
T1 construct: Bought reagent
T1 sequence (looked up): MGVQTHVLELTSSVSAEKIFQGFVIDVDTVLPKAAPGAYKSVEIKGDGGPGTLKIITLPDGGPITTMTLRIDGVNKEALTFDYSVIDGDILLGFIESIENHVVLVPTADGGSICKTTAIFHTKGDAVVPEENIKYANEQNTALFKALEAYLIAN

T2: Alder (Aln g 1, MyBiosource, Cat #MBS1041484) (Alder, UniProt P38948 2-160, limits assumed)
T2 construct: Bought reagent
T2 sequence (looked up): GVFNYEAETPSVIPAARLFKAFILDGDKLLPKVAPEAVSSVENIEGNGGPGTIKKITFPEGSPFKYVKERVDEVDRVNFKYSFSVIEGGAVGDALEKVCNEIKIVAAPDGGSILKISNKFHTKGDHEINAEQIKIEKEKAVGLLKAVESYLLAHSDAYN

T3: Apple (Mal d 1, MyBiosource, Cat #MBS1224919) (Apple, UniProt P43211 2-159, limits assumed)
T3 construct: Bought reagent
T3 sequence (looked up): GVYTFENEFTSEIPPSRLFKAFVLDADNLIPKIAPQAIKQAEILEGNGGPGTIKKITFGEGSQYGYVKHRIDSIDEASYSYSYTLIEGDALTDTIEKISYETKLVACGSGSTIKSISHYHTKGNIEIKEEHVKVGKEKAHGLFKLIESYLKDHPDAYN

T4: European Hornbeam (Car b 1 isoform 1A & 1B, MyBiosource, Cat #MBS1200018) (European Hornbeam, UniProt P38949 2-160)
T4 construct: Bought reagent
T4 sequence (looked up): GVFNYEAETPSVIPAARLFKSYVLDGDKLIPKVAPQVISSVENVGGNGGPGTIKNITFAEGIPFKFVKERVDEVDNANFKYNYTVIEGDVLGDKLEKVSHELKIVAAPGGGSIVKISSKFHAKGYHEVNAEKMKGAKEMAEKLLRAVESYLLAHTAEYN

T5: natural Bet v 1 (Indoor, Cat #NA-BV1-1) (Betula verrucosa (European white birch, …, UniProt P15494 2-160))
T5 construct: Bought natural protein purified from birch pollen; also called nBet v 1
T5 sequence: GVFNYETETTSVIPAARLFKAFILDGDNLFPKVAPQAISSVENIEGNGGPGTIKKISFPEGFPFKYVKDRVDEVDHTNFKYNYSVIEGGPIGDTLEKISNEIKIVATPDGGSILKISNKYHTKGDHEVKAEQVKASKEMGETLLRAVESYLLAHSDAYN

B1: H4H17027P (antibody, human IgG4, V domains shown)
VH: EVQLVESGGGLVQPGGSLRLSCAASGFTFRNYAMHWVRQAPGEGLEWVAAIYRNSDSIDYADSVKGRFTISRDNAKNSLYLQMNSLKTEDTALYYCAKDEGFLEYFDSWGQGTLVTVSS
VL: EIVLTQSPGTLSLSPGERASLSCRASQSVSSSFLAWYQQKPGQAPRLLIYGVSSRFIGIPDRFSGGGSGTDFTLTITRLEPEDFAVYYCQQYGRSPWTFGQGTKVEIK
B2: H4H16971P (antibody, human IgG4, V domains shown)
VH: QVQLVESGGGVVQPGRSLRLSCAASGFTFSSYGLHWVRQAPGKGLEWVAVISDDGSYKFYADSMKGRFTISRDNSKNTLYLQMNSLRAEDTAVYYCAKDRGRSGWYYFDYWGQGTLVTVSS
VL: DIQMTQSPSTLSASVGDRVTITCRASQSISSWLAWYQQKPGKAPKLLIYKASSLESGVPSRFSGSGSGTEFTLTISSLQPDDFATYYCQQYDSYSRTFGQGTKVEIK
B3: H4H17038P2 (antibody, human IgG4 S228P, kappa, V domains shown)
VH: EVQLVESGGDLVQPGGSLRLSCAASGFTFSSYEMNWVRQAPGKGLEWVSFISDSSSNIYYADSVKGRFTISRDNAKKSLYLQMTSLRAEDTAVYYCAREAIGSTSFDNWGQGTLVTVSS
VL: EIVMTQSPATLSVSPGERATLSCRASQSVSSSLAWYQQKPGQAPRRLIYSASTRATGIPARFSGSGSGTEFTLTISSLQSEDFAIYYCHQYNNWPLTFGGGTKVEIKR
notes: human IgG4; also called REGN5714; MAB3
B4: H4H16992P (antibody, human IgG4 S228P, kappa, V domains shown)
VH: QVQLQESGPGLVKPSETLSLTCSVSGGSITNYFWTWIRQSPGKGLEWIGYIYYSGGTNYNPSLKSRVTISIDTSKNQFSLNMNSVTAADTAVYYCAGSYYYGVDVWGQGTTVTVSS
VL: EIVLTQSPATLSLSPGERATLSCRASQSIKSFLAWYRQKPGQAPRLLIYDASNRPTGIPARFSGSGSGTDFTLTINSLESEDFAVYFCQQRNNWPFTFGPGTKVDIKR
notes: human IgG4; also called REGN5713; MAB1
B5: H4H16946P (antibody, human IgG4, V domains shown)
VH: EVQLVESGGGLVQPGGSLRLSCVASGFTFSNYDMNWVRQAPGEGLEWISYISYSDHNIYYIDSVKGRFTISRDNAKNSLYLQMNSLRAEDTAIYYCAREALASSSFDYWGQGTLVTVSS
VL: EIVMTQSPATLSVSPGERVTLSCRASQSVSGNLAWYQQKPGQAPRLLIYSASTGATGVPARFSGSGSGTEFTLTISSLQSEDFALYYCQQYNKWPRTIGQGTKVEIK
B6: H4H16987P (antibody, human IgG4 S228P, kappa, V domains shown)
VH: EVQLVESGGGLVQPGGSLRLSCAASGFTVSSNSMSWVRQAPGEGLEWVSVIFSGGITYYSDSVKGRFTISRHNSKNTLYLQMNSLRTEDTAVYYCARHSNWNFDAFDIWGQGTMVTVSS
VL: DIQMTQSPSSLSASVGDRVTITCRASQSFDTYLNWYQQKPGKAPNLLIYATSSLQSGVPSRFSGSGSGTDFTLTISSLQPEDFGTYYCQQSYSIPYTFGQGTKLEIKR
notes: human IgG4; also called MAB4
B7: H4H17028P (antibody, human IgG4, V domains shown)
VH: QVQLVESGGGVVQPGRSLRLSCAASGFTFSRYAIHWVRQAPGKGLEWVAVISYDGDDKYYGDSVKGRFTISRDNSKTMVYLHMNSLRTEDTAVYYCAKDGYSLYGKDYFDYWGQGTLVTVSS
VL: EIVLTQSPGTLPLSPGERATLSCRASQSITNSYLAWYQQKPDQAPRLLIYGASSRATGIPDRFSGSESGTDFTLTISRLEPEDFAVYYCQQYVRSPWTFGQGTKVEIK
B8: H4H17031P (antibody, human IgG4, V domains shown)
VH: QVQLQQWGAGLLKPSETLSLTCVVYGESFGNYHWNWIRQSPGKRLEWIGEINQNGHTNYNPSLKSRVTISVDTSKIQFSLRLNSVTAADTAVYFCARGHNYVNSYFGLDVWGQGTTVTVSS
VL: EIVMTQSPATLSVSPGERATLSCRTSQSVSISLAWYQRKPGQAPRLLIFGSSTRATGVPARFSGSGSGTEFTLTISSLQSEDFAVYYCQQYNNWPYTFGQGTKLEIK
B9: H4H17033P (antibody, human IgG4, V domains shown)
VH: QVQLVQSGAEVKKPGASVKVSCKASGYTFAAHYMHWVRQAPGQGLEWMGWINTYTGGTNYGQKFQGRVTMTRDTSITTAYMELSRLRSDDTAVYYCARDRRNWNFVFEYWGQGTLVTVSS
VL: DIQMTQSPSSLSASVGDRVTISCRASQNIKNYLNWYQQKPGKAPKLLIYEASNLQSGAPSRFSGSGSGTDFTLTISSLEPEDFATYYCQQSFSIPWTFGQGTKVEIK

target: T1, Celery (Api g 1, MyBiosource, Cat …); test: SPR Biacore, 25C;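 also: binding of related allergens to purified monoclonal anti-Bet v 1 antibodies by surface plasmon resonance in HEPES-buffered saline pH 7.4, kinetics fitted to a 1:1 model with mass transport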

Row | Binder | binding result
1 | B1 | no binding (tested: 100 nM)
2 | B2 | no binding (tested: 100 nM)
3 | B3 | no binding (tested: 100 nM)
4 | B4 | no binding (tested: 100 nM)
5 | B5 | no binding (tested: 100 nM)
6 | B6 | no binding (tested: 100 nM)
7 | B7 | no binding (tested: 100 nM)
8 | B8 | no binding (tested: 100 nM)

target: T2, Alder (Aln g 1, MyBiosource, Cat …); test: SPR Biacore, 25C;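 also: binding of related allergens to purified monoclonal anti-Bet v 1 antibodies by surface plasmon resonance in HEPES-buffered saline pH 7.4, kinetics fitted to a 1:1 model with mass transport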

Row | Binder | binding result
9 | B3 | no binding (tested: 100 nM)
10 | B9 | no binding (tested: 100 nM)
11 | B4 | no binding (tested: 100 nM)
12 | B5 | no binding (tested: 100 nM)

target: T3, Apple (Mal d 1, MyBiosource, Cat …); test: SPR Biacore, 25C;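 also: binding of related allergens to purified monoclonal anti-Bet v 1 antibodies by surface plasmon resonance in HEPES-buffered saline pH 7.4, kinetics fitted to a 1:1 model with mass transport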

Row | Binder | binding result
13 | B1 | no binding (tested: 100 nM)
14 | B3 | no binding (tested: 100 nM)
15 | B9 | no binding (tested: 100 nM)
16 | B4 | no binding (tested: 100 nM)
17 | B5 | no binding (tested: 100 nM)
18 | B6 | no binding (tested: 100 nM)
19 | B7 | no binding (tested: 100 nM)
20 | B8 | no binding (tested: 100 nM)

target: T4, European Hornbeam (Car b 1 isoform 1A & …); test: SPR Biacore, 25C;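 also: binding of related allergens to purified monoclonal anti-Bet v 1 antibodies by surface plasmon resonance in HEPES-buffered saline pH 7.4, kinetics fitted to a 1:1 model with mass transport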

Row | Binder | binding result
21 | B2 | no binding (tested: 100 nM)
22 | B9 | no binding (tested: 100 nM)
23 | B6 | no binding (tested: 100 nM)

target: T5, natural Bet v 1 (Indoor, Cat #NA-BV1-1); test: SPR Biacore, mAb captured on anti-hFc, 37C;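 also: purified anti-Bet v 1 monoclonal antibodies, HBS-ET running buffer pH 7.4, rate constants from 1:1 model fit with mass transport limitation, KD and t½ calculated from kinetic constants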
Procedure: (§1) Equilibrium dissociation constants (KD) for natural Bet v 1 binding to purified anti-Bet v 1 monoclonal antibodies were determined using a real-time surface plasmon resonance biosensor (SPR-Biacore) on a Biacore 4000 instrument. All binding studies were performed in 10 mM HEPES, 150 mM NaCl, 3 mM EDTA, and 0.05% v/v surfactant Tween-20, pH 7.4 (HBS-ET) running buffer at 25° C. and 37° C. […] Association (kₐ) and dissociation (kd) rate constants were determined by fitting the real-time binding sensorgrams to a 1:1 binding model with mass transport limitation using Scrubber 2.0c curve-fitting software. Binding dissociation equilibrium constants (KD) and dissociative half-lives (t½) were calculated from the kinetic rate constants as:

Row | Binder | 100 nM natural Bet v 1 Bound (RU) | Kd [nM] | koff [s⁻¹] | kon [M⁻¹ s⁻¹] | t½ [min]
24 | B1 | 67 | 9.48 | 0.00093 | 98100 | 12
25 | B2 | 66 | 6.93 | 0.00244 | 352000 | 4.7
26 | B9 | 74 | 1.9 | 0.00119 | 627000 | 10
27 | B5 | 93 | 2.08 | 0.000601 | 289000 | 19
28 | B6 | 74 | 9.16 | 0.00477 | 520000 | 2.4
29 | B7 | 71 | 7.77 | 0.0029 | 373000 | 3.9
30 | B8 | 63 | 27.9 | 0.00544 | 485000 | 2.1

target: T5, natural Bet v 1 (Indoor, Cat #NA-BV1-1); test: SPR Biacore, mAb captured on anti-hFc, 25C;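 also: rate constants from sensorgrams fitted to a 1:1 model with mass transport limitation, KD and t½ derived from kinetic constants, run in HBS-ET buffer at pH 7.4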
Procedure: as §1

Row | Binder | 100 nM natural Bet v 1 Bound (RU) | Kd [nM] | koff [s⁻¹] | kon [M⁻¹ s⁻¹] | t½ [min]
31 | B1 | 48 | 4.32 | 0.00027 | 62400 | 43
32 | B2 | 57 | 3.26 | 0.000781 | 240000 | 15
33 | B9 | 61 | 1.19 | 0.000469 | 394000 | 25
34 | B5 | 74 | 0.982 | 0.000201 | 205000 | 58
35 | B6 | 61 | 2.77 | 0.00114 | 410000 | 10
36 | B7 | 63 | 3.79 | 0.00107 | 281000 | 11
37 | B8 | 54 | 13.5 | 0.00168 | 124000 | 6.8

From US20240083986A1 (published 2024)
